Laboratory results taken from PMC9720572, “Macromolecular crowding amplifies allosteric regulation of T-cell protein tyrosine phosphatase” (The Journal of Biological Chemistry, 2022).
Where a chain is given by its changes, count along the chain named.

B1: TC45^E/A (TC45 with 378KRKRPR383 mutated into 378EAAAPE383), fused at both termini to CFP (CFP-TC45^E/A-CFP) or to YFP (YFP-TC45^E/A-YFP), bacterially expressed (enzyme, UniProt P17706-2 1-387, looked up)
chain: MPTTIEREFEELDTQRRWQPLYLEIRNESHDYPHRVAKFPENRNRNRYRDVSPYDHSRVKLQNAENDYINASLVDIEEAQRSYILTQGPLPNTCCHFWLMVWQQKTKAVVMLNRIVEKESVKCAQYWPTDDQEMLFKETGFSVKLLSEDVKSYYTVHLLQLENINSGETRTISHFHYTTWPDFGVPESPASFLNFLFKVRESGSLNPDHGPAVIHCSAGIGRSGTFSLVDTCLVLMEKGDDINIKQVLLNMRKYRMGLIQTPDQLRFSYMAIIEGAKCIKGDSSIQKRWKELSKEDLSPAFDHSPNKIMTEKYNGNRIGLEEEKLTGDRCTGLSSKMQDTMEENSESALRKRIREDRKATTAQKVQQMKQRLNENEREAAAPELTDT
notes: The His6 tag and its thrombin cleavage are described in general for the pET28 constructs and the purification; also called C-EA-C; Y-EA-Y; not shown: His6, N-terminal, cleaved; CFP (one copy) or YFP (the other copy), N-terminal, kept; CFP (one copy) or YFP (the other copy), C-terminal, kept
B2: T-cell protein tyrosine phosphatase, 45 kDa form (TC45), wild type, fused at both termini to CFP (CFP-TC45-CFP) or to YFP (YFP-TC45-YFP), bacterially expressed (enzyme, UniProt P17706-2 1-387, looked up)
chain: B1 chain with E378K, A379R, A380K, A381R, E383R
notes: T-cell protein tyrosine phosphatase (TC-PTP, encoded by PTPN2), 45 kDa form TC45, full-length ORF; the printed residues 377RKRKRPR383 near the C terminus fit the 387-residue TC45 isoform; Self-association was tested with an equimolar mixture of two differently labelled copies: CFP-TC45-CFP and YFP-TC45-YFP; The His6 tag and its thrombin cleavage are described in general for the pET28 constructs …

Molecular target: the molecule itself
Test: FRET or BRET; in vitro intermolecular FRET; equimolar mixture of the CFP-X-CFP and YFP-X-YFP fusions, total protein 10 nM, kinetic buffer (50 mM Tris-HCl pH 7.0, 125 mM NaCl, 0.01% Tween-20, 1 mM DTT) with 22.5% PEG 3350, 1 h at 30 °C; excitation 400 nm, ratio R of emission at 530 nm/485 nm

Row | Protein | binding result
1 | B1 | binds
2 | B2 | binds
